Laboratory results: CN108424448A (UNIV ZHEJIANG, dated 2018)

Molecular target: ZEBOV-VP40蛋白C端的特异的抗原肽13肽 […] (扎伊尔型埃博拉病毒 (Zaire ebolavirus))
Assay: indirect ELISA on coated VP40 peptide (hybridoma screening, P/N≥2.1 positive)

B1: 抗埃博拉病毒VP40蛋白单克隆抗体F1B4 (antibody, V domains shown)
VH: EVRLQQSGPELGKPGASVKISCKTSGYVFTEYTIHWMKQSHGKSLEWIGNIYPKNGGTAYSQKFKGRATLSADKSSRTAYIELRSLTSEDSAVYYCARDNYGFDCWGQGTTLTVSS
VL: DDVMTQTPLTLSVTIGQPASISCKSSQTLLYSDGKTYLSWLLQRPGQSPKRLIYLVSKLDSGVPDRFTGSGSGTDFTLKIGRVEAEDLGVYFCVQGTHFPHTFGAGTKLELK
  binding result: binds
